Patent publication US20150230430A1 (University of Pennsylvania, published 2015)

Biological target: T1, Gonadotropin Releasing Hormone (GnRH) peptide (mammalian (same amino acid sequence in …, N-terminal pyroglutamic acid (pGlu))); C-terminal amide (GlyNH2))
T1 construct: GnRH peptide bought from Peptides International; also called LHRH; Luteinizing Hormone Releasing Hormone
T1 peptide: EHWSYGLRPG
Assay: competition ELISA (Friguet method): supernatant pre-incubated overnight with free GnRH peptide, then GnRH-coated plate; nonlinear regression
Procedure: Supernatant was harvested […] after transfection and passed through a 0.2 μm syringe filter (Corning, Corning, N.Y.). Filtered supernatant was evaluated for total antibody expression and GnRH binding activity using protein A and GnRH ELISAs, respectively. Polystyrene ELISA plates (Corning) were coated overnight at room temperature with protein A (5 μg/mL, Sigma Aldrich, St Louis, Mo.) or GnRH peptide (1 μg/mL, Peptides International, Louisville, Ky.) in phosphate buffered saline. Plates were washed five times with PBS containing 0.05% tween 20 (Sigma), then blocked for one hour at room temperature with 1% bovine serum albumin in PBS. Filtered supernatant serially diluted two-fold in PBS was incubated in blocked wells for one hour. Plates were washed five times, then incubated for one hour with a biotinylated goat anti-human IgG1 antibody (Jackson ImmunoResearch, West Grove, Pa.) diluted 1:10,000 in blocking solution. Plates were then washed, incubated with streptavidin-HRP (Abcam, Cambridge, Mass.) diluted 1:30,000 in blocking solution for one hour, washed again, and developed with TMB substrate (Sigma). The reaction was stopped after 20 minutes by the addition of 2 N sulfuric acid. Absorbance was measured at […], with a reading at 540 nm subtracted as background. […] The fraction of antibody binding sites occupied by GnRH was calculated using the method of Stevens, 1987. […]

B1: chimeric anti-GnRH antibody (murine variable regions of hybridoma USASK/DSIL-LHRH-A1, ATCC HB-9094, fused with human IgG1 heavy chain and kappa light chain … (antibody, V domains shown)
VH: QIQLVQSGPELKKPGETVKISCKASGYPFTNYGMNWVKQAPGKGLKWMGWINTYTGEPACADDFRGRFAISLETSARTAYLQINNLINEDTATYFCARTGGGRYNYGMDYWGQGTSVTVSS
VL: QIVLTQSPAIMSASPGEKVTITCSATSSVSYIHWFQQKPGTSPKLWIYSTSNLASGVPVRFSGSGSGTSYSLTISRMEAEDAATYYCQQRSSYPPTFGGGTKLEIKR
notes: Full-length chimeric heavy and light chains: murine variable regions on human IgG1 and human kappa constant domains; Tested as filtered supernatant of transiently transfected 293 HEK cells; also called chimeric GnRH antibody; chimeric antibody
In the case of B1, the Kd is reported as 3.9 nM.
